Tests used:
[1] = biological target: BG505.MD39 native-like trimer (stabilized HIV Env gp140 ectodomain), sequence optimized, recombinant (HIV-1 (isolate BG505)); test: SEC
[2] = biological target: BG505.MD39 native-like trimer (stabilized HIV Env gp140 ectodomain), sequence optimized, recombinant (HIV-1 (isolate BG505)); test: SEC-MALS
[3] = biological target: BG505.MD39 native-like trimer (stabilized HIV Env gp140 ectodomain), sequence optimized, recombinant (HIV-1 (isolate BG505)); test: negative-stain EM
[4] = biological target: BG505.MD39 native-like trimer (stabilized HIV Env gp140 ectodomain), sequence optimized, recombinant (HIV-1 (isolate BG505)); test: native gel or EMSA
[5] = biological target: in vivo produced BG505.MD39 (DNA-encoded, pMD39_opt, in mouse muscle) (HIV-1 (isolate BG505)); test: native gel or EMSA

BG505.MD39 native-like trimer (stabilized HIV Env gp140 ectodomain), sequence optimized, recombinant (complex)
stoichiometry N [1]: 3
stoichiometry N [2]: 3
stoichiometry N [3]: 3
stoichiometry N [4]: 3

in vivo produced BG505.MD39 (DNA-encoded, pMD39_opt, in mouse muscle) (complex)
stoichiometry N [5]: 3

From PMC8816947
